The text below walks through data of US20150322474A1 (UNIVERSITY OF THE UNIVERSITY OF ABERDEEN, published 2015).

Data set [1] deals with T1, VGAGIGFPAYDG peptide substrate.
T1 chain: VGAGIGFPAYDG

Data set [2] addresses T2, VGAGIGFPAYRG peptide substrate (modified recognition sequence, Asp to Arg).
T2 chain: VGAGIGFPAYRG

In data set [3] the target is T3, VPAPIPFPAYDG peptide (substrate mimic, P8-P4').
T3 peptide: VPAPIPFPAYDG
The data set can be described thus: X-ray crystal structure of the complex, 2.63 Å (co-crystallised, then soaked in 7.5 mM peptide).

Where a chain is given by its changes, count along the chain named. In names and notes the source's numbering stands. Bounds are passed on as bounds.

B1: PatGmacΔ1 (deletion of residues 578-608, the helix-loop-helix insertion motif) (protein)
chain: GEDEIESAGVSASEVESSATKQKVALHPHDLDERIPGLADLHNQTLGDPQITIVIIDGDPDYTLSCFEGAEVSKVFPYWHEPAEPITKDRIVLNDHACHVTSTIVGQEHSPVFGIAPNCRVINMPQDAVIRGNYDDVMSPLNLARAIDLALELGANIIHCAFCRPTQTSEGEEILVQAIKKCQDNNVLIVSPTGNNSNESWCLPAVLPGTLAVGAAKVDGTPCHFSNWGGNNTKEGILAPGEEILGAQPCTEEPVRLTGTSMAAPVMTGISALLMSLQVQQGKPVDAEAVRTALLKTAIPCDPEVVEEPERCLRGFVNIPGAMKVLFGQ
With B1, in data set [1], the Cyclic ion count (%) (M + H = 699) was 0%, the Linear ion count (%) (M + H = 717) amounted to 92% and the Unprocessed ion count (%) (M + H = 1123) came to 8%.

B2: PatGmac K598D (protein)
chain: GEDEIESAGVSASEVESSATKQKVALHPHDLDERIPGLADLHNQTLGDPQITIVIIDGDPDYTLSCFEGAEVSKVFPYWHEPAEPITPEDYAAFQSIRDQGLKGKEDEEALEAVIPDTKDRIVLNDHACHVTSTIVGQEHSPVFGIAPNCRVINMPQDAVIRGNYDDVMSPLNLARAIDLALELGANIIHCAFCRPTQTSEGEEILVQAIKKCQDNNVLIVSPTGNNSNESWCLPAVLPGTLAVGAAKVDGTPCHFSNWGGNNTKEGILAPGEEILGAQPCTEEPVRLTGTSMAAPVMTGISALLMSLQVQQGKPVDAEAVRTALLKTAIPCDPEVVEEPERCLRGFVNIPGAMKVLFGQ
Turning to B2, in data set [1], the Cyclic ion count (%) (M + H = 699) was 0%, the Linear ion count (%) (M + H = 717) worked out at 100% and the Unprocessed ion count (%) (M + H = 1123) was 0%. For the same molecule, the “linear product, LC-MS” value in data set [2] was “PatGmac K598D produced cyclo[VGAGIGFP] with only 8% linear product, at a rate over an order of magnitude faster than wild-type PatGmac with VGAGIGFPAYDG”.

B3: PatGmacH618A (inactive mutant of the PatG macrocyclase domain) (enzyme)
chain: B2 chain with D107K, H127A
For B3, the binding result in data set [3] is listed as “binds”.

B4: PatGmac wild-type (macrocyclase domain of PatG, residues 492-851) (protein)
chain: B2 chain with D107K
Consider B4, for which, in data set [1], the Cyclic ion count (%) (M + H = 699) is 100%, the Linear ion count (%) (M + H = 717) was 0% and the Unprocessed ion count (%) (M + H = 1123) was 0%. For the same molecule, the “macrocyclization reaction, LC-MS” value in data set [2] is “reacted extremely slowly with the substrate giving equal amounts of macrocyclized and linear products”.

B5: PatGmac triple mutant R589D K594D K598D (protein)
chain: B2 chain with R98D, K103D
Consider B5, for which, in data set [1], the Cyclic ion count (%) (M + H = 699) amounted to 0%, the Linear ion count (%) (M + H = 717) was found to be 6% and the Unprocessed ion count (%) (M + H = 1123) was determined as 94%. In data set [2], the “macrocyclization reaction, LC-MS” value is “reacted extremely slowly with the substrate giving equal amounts of macrocyclized and linear products”.

B6: PatGmac K594D (protein)
chain: B2 chain with K103D, D107K
Regarding B6, in data set [1], the Cyclic ion count (%) (M + H = 699) amounted to 29%, the Linear ion count (%) (M + H = 717) came out at 71% and the Unprocessed ion count (%) (M + H = 1123) turned out to be 0%. In addition, the “macrocyclization reaction, LC-MS” value in data set [2] was “reacted extremely slowly with the substrate giving equal amounts of macrocyclized and linear products”.

B7: PatGmacΔ2 (deletion of residues 578-614, the helix-loop-helix insertion and the N-terminal extension of α4) (protein)
chain: GEDEIESAGVSASEVESSATKQKVALHPHDLDERIPGLADLHNQTLGDPQITIVIIDGDPDYTLSCFEGAEVSKVFPYWHEPAEPILNDHACHVTSTIVGQEHSPVFGIAPNCRVINMPQDAVIRGNYDDVMSPLNLARAIDLALELGANIIHCAFCRPTQTSEGEEILVQAIKKCQDNNVLIVSPTGNNSNESWCLPAVLPGTLAVGAAKVDGTPCHFSNWGGNNTKEGILAPGEEILGAQPCTEEPVRLTGTSMAAPVMTGISALLMSLQVQQGKPVDAEAVRTALLKTAIPCDPEVVEEPERCLRGFVNIPGAMKVLFGQ
With B7, in data set [1], the Cyclic ion count (%) (M + H = 699) came out at 0%, the Linear ion count (%) (M + H = 717) was > 99% and the Unprocessed ion count (%) (M + H = 1123) is < 1%.
